In experiment [1] the target is 4-1BB (CD137) on human MART-1 reactive T cell clones (TIL 209) (human) (UniProt Q07011). The experiment is described as follows: cell-based or functional assay.
The target in experiment [2] is human SLAMF6 (NTB-A) on human tumor infiltrating lymphocytes / T cells (human) (UniProt Q96DU3). The experiment is described as follows: cell-based or functional assay.
human SLAMF6 (NTB-A) on human tumor infiltrating lymphocytes / T cells (human), sequence (Q96DU3 22-332): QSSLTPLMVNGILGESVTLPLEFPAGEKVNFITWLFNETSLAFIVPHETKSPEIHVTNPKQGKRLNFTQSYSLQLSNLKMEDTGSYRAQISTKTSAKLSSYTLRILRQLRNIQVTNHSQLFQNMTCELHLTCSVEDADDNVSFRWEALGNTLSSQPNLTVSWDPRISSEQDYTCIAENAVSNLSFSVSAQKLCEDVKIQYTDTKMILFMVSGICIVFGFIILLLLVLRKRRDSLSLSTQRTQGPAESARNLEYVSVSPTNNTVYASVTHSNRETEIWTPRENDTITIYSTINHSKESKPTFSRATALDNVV

seSLAMF6 (SEQ ID NO: 3; Leu 28-Lys 225 of Q96DU3 fused with a polyhistidine tag at the C-terminus), sequence (Q96DU3 other isoform, or with tags, fused parts or gaps limits assumed): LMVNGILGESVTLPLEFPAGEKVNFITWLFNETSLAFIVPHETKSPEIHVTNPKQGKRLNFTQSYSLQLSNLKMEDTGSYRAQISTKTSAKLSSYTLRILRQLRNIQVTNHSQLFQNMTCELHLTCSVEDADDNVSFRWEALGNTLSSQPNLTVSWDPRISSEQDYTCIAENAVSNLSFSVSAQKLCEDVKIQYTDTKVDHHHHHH
4-1BB (CD137) on human MART-1 reactive T cell clones (TIL 209) (human), sequence (Q07011 24-255 limits assumed): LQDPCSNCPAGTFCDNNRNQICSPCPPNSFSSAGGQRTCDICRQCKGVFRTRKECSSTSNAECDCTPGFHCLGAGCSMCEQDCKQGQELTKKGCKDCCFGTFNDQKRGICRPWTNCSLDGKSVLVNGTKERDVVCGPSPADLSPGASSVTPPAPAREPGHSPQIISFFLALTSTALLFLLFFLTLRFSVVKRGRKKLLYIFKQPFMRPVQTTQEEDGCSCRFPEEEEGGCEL

In the case of “4-1BBL expressed on transfected 624mel melanoma cells (mel624/4-1BBL) (from UniProt P41273 1-254) (ligand)”, in experiment [1], the IFNγ secretion of TIL 209 co-cultured with mel624/4-1BBL in CM (mel624/moc: 4,120) is 8600 pg/mL and the IFNγ secretion of TIL 209 co-cultured with mel624/4-1BBL with BSA (mel624/moc: 3,160) stood at 10500 pg/mL.
Turning to “seSLAMF6 (SEQ ID NO: 3; Leu 28-Lys 225 of Q96DU3 fused with a polyhistidine tag at the C-terminus) (from UniProt Q96DU3 28-225) (receptor)”, in experiment [2], the CD107a surface expression (lytic degranulation) of human TILs 209 after REP with seSLAMF6 50 µg/ml, co-culture with 526mel came to 2 fold; the ratio of cell death and apoptosis (PI / Annexin-V, flow cytometry) of melanoma-activated TILs 209 after IL-2 withdrawal, seSLAMF6 10 µg/ml was 4%; the ratio of cell death on Day 7 (PI / annexin-V), TILs expanded by REP-IL-2, then seSLAMF6 50 µg/ml lay within 7 to 11%; the ratio of cell death on Day 7 (PI / annexin-V), TILs expanded by REP-seSLAMF6, then seSLAMF6 50 µg/ml fell in the range of 7 to 11%.

The values are drawn from US20160333072A1.
